# Laboratory results taken from the DeepSol protein solubility set.
# Test: soluble on expression in E. coli; label from the status in PepcDB or PDB records
row,Sequence,soluble on expression in E. coli
1,MKHQHQHQHQHQHQMHQTEDYCLASNKVGRCRGSFPRWYYDPTEQICKSFVYGGCLGNKNNYLREEECILACRGV,soluble
2,MKIAFLRPGKIGTPANHVYALLDYLREKGAEIREYDLKERDVNDVVKEIEEWKPLFLMDVNATGVIVAERDGKKHILADILGIVHVSVFFEDPLLFFPAFEGVEKPQNYIAFITELKHTDSLTALGIQNISYISPFVDLKQFPESEGEKDIEIAFVGPVVDPQIILNSVSQNYPQEIMPFFIETGEFMFRNPEVHILTAFNYVFGLFNPQMQEQFNKWREQNPSAFMRFLNDITAYTTMRRRMYLLHFLDGMDVKILGDYQGNLFENHEAIKVSSYEQLLKYYSRSNITVYVSPQTYPTGLSVIPLEILYMGSLPLIDFKGAIPGFLKPGEEIETFAPLDRADLEEKIVFYIEENREGINEIVQRGKKAVQERFTVKDRGEFVYNVLSDVKRQYEAAQKGQVN,not soluble
3,MKIAITITVLMLSICCSSASSDICPGFLQVLEALLLGSESNYEAALKPFNPASDLQNAGTQLKRLVDTLPQETRINIVKLTEKILTSPLCEQDLRV,soluble
4,MKIAVDAMGGDNAPQAIVEGVMLAKQDFPDIEFQLYGKEAEIKKYITDEKNITIIHTDEKIASDDEPVKAIRRKKTASMVLAAQAVKNGEADAIFSAGNTGALLAAGLFIVGRIKNVERPGLMSTLPVMGEPDKGFDMLDLGANADNKPEHLVQYAVLGSFYAEKVRNVQNPRVGLLNNGTEETKGSELTKKAFELLAADETINFVGNVEARELLNGVADVVVTDGFTGNAVLKSIEGTAMNMMSLLKTAILSEGVKGKMGALLLKNALHGMKDEMDYSKHGGAVLFGLKAPVIKTHGATGPDAVRYTIRQIHTMLETQVVPQLVEYYEGKAE,soluble
5,MKIDKYSAILGNTVGFHNMSTLTDHRPVASLPFGGKYRLIDFPLSSLANAGVRSVFGIFQQDNISSVFDHIRSGREWGLSTLLSHYYLGIYNTRVESSTVGKEYYQQLLTYLKRSGSNQTVALNCDVLINIDLNQVFHLHSTTKEPITVVYKKLAKKDISEVNAILDVDETDHVLSHKLFDSKSTAETFNMSTDIFVVDTPWLIEHLEEEAKKEHPEKLRYVLRDLAVKEGAFAYEYTGYLANIHSVKSYYQANIDMLESQKFYSLFSPNQKIYTKVKNEEPTYYANTSKVSTSQFASGSIIEGQVANSVLSRNIHVHKDSLVKDSLLFPRVVIGEGAQVEYAILDKGVEVEHGVVIRGTAEHPVVVKKGAKVTEDIHS,not soluble
6,MKIEAISTTIVDVPTRRPLQMSFTTVHKQSYVIVQVKAGGLVGIGEGGSVGGPTWGSESAETIKVIIDNYLAPLLVGKDASNLSQARVLMDRAVTGNLSAKAAIDIALHDLKARALNLSIADLIGGTMRTSIPIAWTLASGDTARDIDSALEMIETRRHNRFKVKLGARTPAQDLEHIRSIVKAVGDRASVRVDVNQGWDEQTASIWIPRLEEAGVELVEQPVPRANFGALRRLTEQNGVAILADESLSSLSSAFELARDHAVDAFSLKLCNMGGIANTLKVAAVAEAAGISSYGGTMLDSTVGTAAALHVYATLPSLPYGCELIGPWVLGDRLTQQDLEIKDFEVHLPLGSGLGVDLDHDKVRHYTRAA,soluble
7,MKIFSRLGHVLLICSSLIIAIPAHSADSSTTTKAGVKKTVKKQELSANSALVIDLKTNEIIYSNNPDAVKPIASVTKLMTAIVTLDAKLPMDAKLPITIKDAKEMKGVHSRVKIGSEISRKDMLLLTLMSSENRAAASLAHHYPGGYKAFIKAMNAKAKALGMKNTRFVEPTGLSAKNVSTARDLVVLLKASKKYPLLGKLSATDKKTVTFSKPRYTLDFRNTNRLVHNDNWKIDLTKTGFTNAAGHCLVMRTQMGRRQVAFVVLDTKGKLSPVGDANRLRTWIETGKVTPLSSEAKQYKKQRSQEQIAKISDYKS,not soluble
8,MKIFVLSIRPEEKAQRTGGACFDILNVPVTRLEPIPVDYTDLIRSGVDCVAFTSSYGVRLFFKNAPVKNFRYFGIGKSTCEEVRKYGYDCEYPEKMDSEGLADMIISHCSGRKVALIRSANANEIVNEKIMGHVDFIDLRNYRAVNTNVDLTPYMAKEECMGIIVTSSMEAKIAMPAIKATGKPVYSIGSVTTKTLEEAGIHPAISGNSDFVDLVEKIKKYLCLV,not soluble
9,MKIFVVGAHGQIGQLLVHRLLDRGDTVTGGYRDPIAQTPDPEKNFRAVELDLSWPVDRLADLYAGHDAIVFAAGSRGQDLLGVDLDGAVKTMKAAERADISRFIMLSALDAEDPDKWPDQLHDYYIVKYYADEWLIHNTDLDYVIVQPTALTNDPAQGSITLQPQRPSSIPRADVADVLVAALDSNRHRDTVKIASGNEAIVKALHVLEHHHHHH,not soluble
10,MKIGLIGAGVVGRAIATLAVRAGHQVMLSNSRGPHTLFSLRAAVGCAIGTVDEAAAFGDIGVVAVPLAAYRAVPAAALAGKVVIDTNNYYPERDGAIAELDDKRTTTSELLARHLPASRIVKAFNAITMTDLDRDGRPAGSPNRRALPVAGDDAKGKAIAIALLDAFGFDALDAGPLSQGWRFERGTPAYCVALTRDALEKTLAATTRLEHHHHHH,not soluble
11,MKIKILVDEYNTQKEQAKKVRKATSLYFRIHPSIMASKTLRVLFLGPKGTYSHQAALQQFQSTSDVEYLPAASIPQCFNQLENDTSIDYSVVPLENSTNGQVVFSYDLLRDRMIKKALSLPAPADTNRITPDIEVIAEQYVPITHCLISPIQLPNGIASLGNFEEVIIHSHPQVWGQVECYLRSMAEKFPQVTFIRLDCSSTSESVNQCIRSSTADCDNILHLAIASETAAQLHKAYIIEHSINDKLGNTTRFLVLKRRENAGDNEVEDTGLLRVNLLTFTTRQDDPGSLVDVLNILKIHSLNMCSINSRPFHLDEHDRNWRYLFFIEYYTEKNTPKNKEKFYEDISDKSKQWCLWGTFPRNERYYHK,not soluble
12,MKILTIDTSTSTCSAALSIDGRCAGEYLLEAERHPSERLLAAVDILLRDTGMELEELDGFGVALGPGSFTGVRIGVATVKGLALATGKPAVGFSSLAMLALNLPWSLLPVCTLFDARKKEVYGGLYRVTSAPEPVIVDRVAPPERFLEAIEGEAIFVGDGAIRYREAIESILGHRAFFAPAHCHQPRASAGALLAGELLRTGAAVPLPLLNPTYIRPSEAELARMCQKAVAAALEHHHHHH,not soluble
13,MKILVFGGTRFFGKKLVERLVSEGHDVTIGTRGKTEDNFGDTVKRVVLNRESRDALFQLAKEDWDVIYDNICFSPKEALYAVDAFKGKVKRYIYTSSLSVYSQKGRALVEADFNPEHYEIVIGDKEDFDYGEGKRLAEAVFFQKASFPVVAVRFPIVLGLDDYTKRLHFHINHIKNHQEIGISNGQAEIGFITSDEAAHFLEWVGVESDLTGPVNATSNGTYALNGFIKMLEEKIGELALVEEVTDDVDDSPFGIEKTYYLDNAKATEAGFVFNDLKVWLPALVTDILKENLEHHHHHH,not soluble
14,MKILVTGTEGYLGSLLPSLLIAKGHEVSGLDTGFYKVGWLYNGTNITAKTLNKDIRNIIPEDLEGVDAIVHMAELSNDPAGQLAPHITYEINHLGSVHLANLAKRMGVRRFLYMSSCSVYGVASEGDVTEESPVNPQTAYAECKTLVERDIKPLADDDFSPTFMRNATAFGASPRMRFDIVLNNLSGLAWTTKEIKMTSDGTPWRPLVHALDICQAIICALEAPRDIVHNQVFNVGDTANNYRVKEIAEIIADTFPSCKLTFGNNGSDNRSYRVSFEKINTVLPGFKCEWNAQTGAKQLFDLFSQIDMTEDTFLFRGFTRLKQLEYLIRTQQIDQNFFWAKCDNVVV,not soluble
15,MKIQLDINGTEIQKGVWVGSGAIIEPGAILNPPCVIGDNCRIESGAVIDSLSVIGNNNVIERDSSVKRSVIWDGNYIEYGSKIRGAILCSKTNLKRYVHIFENAIVGDNCLINERVVIKPNIKIWPQKTVEPFAIVDRNIIWGSKLEHHHHHH,not soluble
16,MKISPSLMCMDLLKFKEQIEFIDSHADYFHIDIMDGHFVPNLTLSPFFVSQVKKLATKPLDCHLMVTRPQDYIAQLARAGADFITLHPETINGQAFRLIDEIRRHDMKVGLILNPETPVEAMKYYIHKADKITVMTVDPGFAGQPFIPEMLDKLAELKAWREREGLEYEIEVDGSCNQATYEKLMAAGADVFIVGTSGLFNHAENIDEAWRIMTAQILAAKSEVQPHAKTA,soluble
17,MKITVPATSANIGPGFDSVGVAVSKYLTIEVLEPADVWFIEHDLGDIPSDENNLLISTALQVKSDLQPHKLVMASDIPLAR,not soluble
18,MKIVAFNGSPRKGGNTELLIKEVFKPIQEAGIETELVQLGGKLLRGCASCYTCFKTKDGKCAIKTDPMNEFIQKAQEADGIILASPTYYGSVSAEMKAFMDRLGLTTIGQGRTLTRKVGAAVISVRRGGAVTVYDELNRFMLGSGMIVPGSTYWNFGIGEMPGEVFDDAEGLRNMKDLGVQLAWLLKAIHNLEHHHHHH,soluble
19,MKIVDANVLLYAVNTTSEHHKPSLRWLDGALSGADRVGFAWVPLLAFVRLATKVGLFPRPLPREAAITQVADWLAAPSAVLVNPTVRHADILARMLTYVGTGANLVNDAHLAALAVEHRASIVSYDSDFGRFEGVRWDQPPALL,soluble
20,MKIVIIGSGLAGLSAGYRLCKSDEVIIFEKDPDIGGMSASYSIENEGKKYFIEKYYHHIFRSDSELLALIKELGLEKQMLWLKGKNAYFVDGKNYPMNTPVEILHFSPLSILDLAKLGMLVLRIKLIKDTAPYDRIKAKEWILDTAGKSVYENFFAPLMKSKFGDNAENVSAAWVIGRVKIRSDRGAEGEKLGYMRGGFNSLIEALAGEITANGGEIRTDREVTEIVIKANAVQGVKVNGDFIPCDAVISTAEPAVLDAITGGKLGDLHETLKSIRYQGTACALIGLDRSLMEDGNYWLNIKA,not soluble
21,MKIVVIGATGIIGKAIVAELNPRHEIISASYKNSDIQVDITSKQSIDAMYKKLNTIDAIVLATGKVHFAALKDMGEDDYKIGLTNKLMGQVNVVLAGLEYINDNGSFTLTSGILNRDPILYGSSAAMVNGALDGFIKSAALEMPRGIRINGVSPTVITEAMENYGPYFRGYEPVSAARAALAYSKSIEGAQTGQVYCVGLEHHHHHH,not soluble
22,MKIYYEGYGCTLNQGETGLYVNKLLSEGSVLVSRPDEADISIIGTCAVIQKTEDHMLKRIEELSRLGRVKVIGCLSAIKGSEISGGNIEAIDRNEFQQFQEYLEDTSIIDAEIMSGIPINQGCTGKCNFCISHIARGKLVSRRPEKIVNQIRMMVAAGKREIRISSLDTAAYGKDTGYRLPSLIKDITAVDGDFMLRVGMMEPRNTIEILDDLLEAYDDPKVFKFLHIPVQSGDDRVLTAMNREYTVDEFMQIIESFRKRFPDMTISTDVIIGYHAENDRSFDLTCDLIRKVQPEIINVTRFSPRELTPDFEHRPRPTNVLKDQDRTMAEIHRKIVSERFSALVGKVERILITEDGKPGTMVGRDASYRPVVIRAPAEKYTWHSARIIGYENTSLIGELVDLEHHHHHH,soluble
